Reference: US20140087995A1 (published 2014)
Numbered stars: 1 amine (or outer) side, 2 acyl side, 3 side chain; on linkers, the order of the positions; unused ones are H or OH. Bridge positions count the residues as written; N and C are the ends. Side chains are listed from the residue outwards. Ends that are not written are not given here. * marks the point of attachment. C20 diacid = O=C(O)CCCCCCCCCCCCCCCCCCC(=O)*; γGlu = O=C(O)[C@H](CCC(=O)[*:2])N[*:1]

T1: human amylin 3(a) receptor (human calcitonin receptor co-expressed with RAMP-3) (human, UniProt P30988 25-474; O60896 24-148, limits assumed)
T1 sequence (looked up) 1: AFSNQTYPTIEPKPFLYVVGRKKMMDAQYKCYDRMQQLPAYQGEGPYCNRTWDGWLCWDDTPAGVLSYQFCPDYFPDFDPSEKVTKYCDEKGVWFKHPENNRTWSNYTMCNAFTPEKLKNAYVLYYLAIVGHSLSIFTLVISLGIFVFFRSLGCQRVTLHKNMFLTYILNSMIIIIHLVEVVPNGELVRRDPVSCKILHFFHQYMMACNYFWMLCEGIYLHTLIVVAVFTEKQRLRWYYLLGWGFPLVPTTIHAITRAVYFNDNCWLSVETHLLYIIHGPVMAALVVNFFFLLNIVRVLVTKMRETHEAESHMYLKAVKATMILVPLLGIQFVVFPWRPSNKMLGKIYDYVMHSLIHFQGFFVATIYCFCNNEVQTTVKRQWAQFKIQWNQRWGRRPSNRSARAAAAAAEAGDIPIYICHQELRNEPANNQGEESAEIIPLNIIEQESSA
T1 sequence (looked up) 2: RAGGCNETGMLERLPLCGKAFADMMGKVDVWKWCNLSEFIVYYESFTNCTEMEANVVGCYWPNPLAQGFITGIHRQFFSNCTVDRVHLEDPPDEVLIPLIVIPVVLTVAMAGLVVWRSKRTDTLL

B1: N^ε1-[(4S)-4-carboxy-4-(19-carboxynonadecanoylamino)butanoyl]-[Arg14,Arg17,Pro21,Pro27,Pro31]-h-amylin (peptide)
peptide: K([γGlu-C20 diacid])CNTATCATQRLARFLRHSSPNFGAIPSSTPVGSNTY-NH2
modifications: disulfide 2-7; N-terminus assumed
SMILES: CC[C@H](C)[C@H](NC(=O)[C@H](C)NC(=O)CNC(=O)[C@H](Cc1ccccc1)NC(=O)[C@H](CC(N)=O)NC(=O)[C@@H]1CCCN1C(=O)[C@H](CO)NC(=O)[C@H](CO)NC(=O)[C@H](Cc1c[nH]cn1)NC(=O)[C@H](CCCNC(=N)N)NC(=O)[C@H](CC(C)C)NC(=O)[C@H](Cc1ccccc1)NC(=O)[C@H](CCCNC(=N)N)NC(=O)[C@H](C)NC(=O)[C@H](CC(C)C)NC(=O)[C@H](CCCNC(=N)N)NC(=O)[C@H](CCC(N)=O)NC(=O)[C@@H](NC(=O)[C@H](C)NC(=O)[C@@H]1CSSC[C@H](NC(=O)[C@@H](N)CCCCNC(=O)CC[C@H](NC(=O)CCCCCCCCCCCCCCCCCCC(=O)O)C(=O)O)C(=O)N[C@@H](CC(N)=O)C(=O)N[C@@H]([C@@H](C)O)C(=O)N[C@@H](C)C(=O)N[C@@H]([C@@H](C)O)C(=O)N1)[C@@H](C)O)C(=O)N1CCC[C@H]1C(=O)N[C@@H](CO)C(=O)N[C@@H](CO)C(=O)N[C@H](C(=O)N1CCC[C@H]1C(=O)N[C@H](C(=O)NCC(=O)N[C@@H](CO)C(=O)N[C@@H](CC(N)=O)C(=O)N[C@H](C(=O)N[C@@H](Cc1ccc(O)cc1)C(N)=O)[C@@H](C)O)C(C)C)[C@@H](C)O
notes: also called compound 63
B2: N^ε1-[(4S)-4-carboxy-4-(19-carboxynonadecanoylamino)butanoyl]-[Arg14,Arg17,Pro21,Pro27,Pro34]-h-amylin (peptide)
peptide: K([γGlu-C20 diacid])CNTATCATQRLARFLRHSSPNFGAIPSSTNVGPNTY-NH2
modifications: disulfide 2-7; N-terminus assumed
SMILES: CC[C@H](C)[C@H](NC(=O)[C@H](C)NC(=O)CNC(=O)[C@H](Cc1ccccc1)NC(=O)[C@H](CC(N)=O)NC(=O)[C@@H]1CCCN1C(=O)[C@H](CO)NC(=O)[C@H](CO)NC(=O)[C@H](Cc1c[nH]cn1)NC(=O)[C@H](CCCNC(=N)N)NC(=O)[C@H](CC(C)C)NC(=O)[C@H](Cc1ccccc1)NC(=O)[C@H](CCCNC(=N)N)NC(=O)[C@H](C)NC(=O)[C@H](CC(C)C)NC(=O)[C@H](CCCNC(=N)N)NC(=O)[C@H](CCC(N)=O)NC(=O)[C@@H](NC(=O)[C@H](C)NC(=O)[C@@H]1CSSC[C@H](NC(=O)[C@@H](N)CCCCNC(=O)CC[C@H](NC(=O)CCCCCCCCCCCCCCCCCCC(=O)O)C(=O)O)C(=O)N[C@@H](CC(N)=O)C(=O)N[C@@H]([C@@H](C)O)C(=O)N[C@@H](C)C(=O)N[C@@H]([C@@H](C)O)C(=O)N1)[C@@H](C)O)C(=O)N1CCC[C@H]1C(=O)N[C@@H](CO)C(=O)N[C@@H](CO)C(=O)N[C@H](C(=O)N[C@@H](CC(N)=O)C(=O)N[C@H](C(=O)NCC(=O)N1CCC[C@H]1C(=O)N[C@@H](CC(N)=O)C(=O)N[C@H](C(=O)N[C@@H](Cc1ccc(O)cc1)C(N)=O)[C@@H](C)O)C(C)C)[C@@H](C)O
notes: also called compound 65
B3: N^ε1-[(4S)-4-carboxy-4-(19-carboxynonadecanoylamino)butanoyl]-[Arg17,Pro21,Pro27,His34]-h-amylin (peptide)
peptide: K([γGlu-C20 diacid])CNTATCATQRLANFLRHSSPNFGAIPSSTNVGHNTY-NH2
modifications: disulfide 2-7; N-terminus assumed
SMILES: CC[C@H](C)[C@H](NC(=O)[C@H](C)NC(=O)CNC(=O)[C@H](Cc1ccccc1)NC(=O)[C@H](CC(N)=O)NC(=O)[C@@H]1CCCN1C(=O)[C@H](CO)NC(=O)[C@H](CO)NC(=O)[C@H](Cc1c[nH]cn1)NC(=O)[C@H](CCCNC(=N)N)NC(=O)[C@H](CC(C)C)NC(=O)[C@H](Cc1ccccc1)NC(=O)[C@H](CC(N)=O)NC(=O)[C@H](C)NC(=O)[C@H](CC(C)C)NC(=O)[C@H](CCCNC(=N)N)NC(=O)[C@H](CCC(N)=O)NC(=O)[C@@H](NC(=O)[C@H](C)NC(=O)[C@@H]1CSSC[C@H](NC(=O)[C@@H](N)CCCCNC(=O)CC[C@H](NC(=O)CCCCCCCCCCCCCCCCCCC(=O)O)C(=O)O)C(=O)N[C@@H](CC(N)=O)C(=O)N[C@@H]([C@@H](C)O)C(=O)N[C@@H](C)C(=O)N[C@@H]([C@@H](C)O)C(=O)N1)[C@@H](C)O)C(=O)N1CCC[C@H]1C(=O)N[C@@H](CO)C(=O)N[C@@H](CO)C(=O)N[C@H](C(=O)N[C@@H](CC(N)=O)C(=O)N[C@H](C(=O)NCC(=O)N[C@@H](Cc1c[nH]cn1)C(=O)N[C@@H](CC(N)=O)C(=O)N[C@H](C(=O)N[C@@H](Cc1ccc(O)cc1)C(N)=O)[C@@H](C)O)C(C)C)[C@@H](C)O
notes: also called compound 77
B4: N^ε1-[(4S)-4-carboxy-4-(19-carboxynonadecanoylamino)butanoyl]-[Arg14,Arg17,Pro21,Pro27]-h-amylin (peptide)
peptide: K([γGlu-C20 diacid])CNTATCATQRLARFLRHSSPNFGAIPSSTNVGSNTY-NH2
modifications: disulfide 2-7; N-terminus assumed
SMILES: CC[C@H](C)[C@H](NC(=O)[C@H](C)NC(=O)CNC(=O)[C@H](Cc1ccccc1)NC(=O)[C@H](CC(N)=O)NC(=O)[C@@H]1CCCN1C(=O)[C@H](CO)NC(=O)[C@H](CO)NC(=O)[C@H](Cc1c[nH]cn1)NC(=O)[C@H](CCCNC(=N)N)NC(=O)[C@H](CC(C)C)NC(=O)[C@H](Cc1ccccc1)NC(=O)[C@H](CCCNC(=N)N)NC(=O)[C@H](C)NC(=O)[C@H](CC(C)C)NC(=O)[C@H](CCCNC(=N)N)NC(=O)[C@H](CCC(N)=O)NC(=O)[C@@H](NC(=O)[C@H](C)NC(=O)[C@@H]1CSSC[C@H](NC(=O)[C@@H](N)CCCCNC(=O)CC[C@H](NC(=O)CCCCCCCCCCCCCCCCCCC(=O)O)C(=O)O)C(=O)N[C@@H](CC(N)=O)C(=O)N[C@@H]([C@@H](C)O)C(=O)N[C@@H](C)C(=O)N[C@@H]([C@@H](C)O)C(=O)N1)[C@@H](C)O)C(=O)N1CCC[C@H]1C(=O)N[C@@H](CO)C(=O)N[C@@H](CO)C(=O)N[C@H](C(=O)N[C@@H](CC(N)=O)C(=O)N[C@H](C(=O)NCC(=O)N[C@@H](CO)C(=O)N[C@@H](CC(N)=O)C(=O)N[C@H](C(=O)N[C@@H](Cc1ccc(O)cc1)C(N)=O)[C@@H](C)O)C(C)C)[C@@H](C)O
notes: also called compound 83
B5: N^ε1-[(4S)-4-carboxy-4-(19-carboxynonadecanoylamino)butanoyl]-[Arg17,Pro21,Pro27,Glu35]-h-amylin (peptide)
peptide: K([γGlu-C20 diacid])CNTATCATQRLANFLRHSSPNFGAIPSSTNVGSETY-NH2
modifications: disulfide 2-7; N-terminus assumed
SMILES: CC[C@H](C)[C@H](NC(=O)[C@H](C)NC(=O)CNC(=O)[C@H](Cc1ccccc1)NC(=O)[C@H](CC(N)=O)NC(=O)[C@@H]1CCCN1C(=O)[C@H](CO)NC(=O)[C@H](CO)NC(=O)[C@H](Cc1c[nH]cn1)NC(=O)[C@H](CCCNC(=N)N)NC(=O)[C@H](CC(C)C)NC(=O)[C@H](Cc1ccccc1)NC(=O)[C@H](CC(N)=O)NC(=O)[C@H](C)NC(=O)[C@H](CC(C)C)NC(=O)[C@H](CCCNC(=N)N)NC(=O)[C@H](CCC(N)=O)NC(=O)[C@@H](NC(=O)[C@H](C)NC(=O)[C@@H]1CSSC[C@H](NC(=O)[C@@H](N)CCCCNC(=O)CC[C@H](NC(=O)CCCCCCCCCCCCCCCCCCC(=O)O)C(=O)O)C(=O)N[C@@H](CC(N)=O)C(=O)N[C@@H]([C@@H](C)O)C(=O)N[C@@H](C)C(=O)N[C@@H]([C@@H](C)O)C(=O)N1)[C@@H](C)O)C(=O)N1CCC[C@H]1C(=O)N[C@@H](CO)C(=O)N[C@@H](CO)C(=O)N[C@H](C(=O)N[C@@H](CC(N)=O)C(=O)N[C@H](C(=O)NCC(=O)N[C@@H](CO)C(=O)N[C@@H](CCC(=O)O)C(=O)N[C@H](C(=O)N[C@@H](Cc1ccc(O)cc1)C(N)=O)[C@@H](C)O)C(C)C)[C@@H](C)O
notes: also called compound 27
B6: N^ε1-[(4S)-4-carboxy-4-(19-carboxynonadecanoylamino)butanoyl]-[Arg17,Pro21,Pro27,Arg34]-h-amylin (peptide)
peptide: K([γGlu-C20 diacid])CNTATCATQRLANFLRHSSPNFGAIPSSTNVGRNTY-NH2
modifications: disulfide 2-7; N-terminus assumed
SMILES: CC[C@H](C)[C@H](NC(=O)[C@H](C)NC(=O)CNC(=O)[C@H](Cc1ccccc1)NC(=O)[C@H](CC(N)=O)NC(=O)[C@@H]1CCCN1C(=O)[C@H](CO)NC(=O)[C@H](CO)NC(=O)[C@H](Cc1c[nH]cn1)NC(=O)[C@H](CCCNC(=N)N)NC(=O)[C@H](CC(C)C)NC(=O)[C@H](Cc1ccccc1)NC(=O)[C@H](CC(N)=O)NC(=O)[C@H](C)NC(=O)[C@H](CC(C)C)NC(=O)[C@H](CCCNC(=N)N)NC(=O)[C@H](CCC(N)=O)NC(=O)[C@@H](NC(=O)[C@H](C)NC(=O)[C@@H]1CSSC[C@H](NC(=O)[C@@H](N)CCCCNC(=O)CC[C@H](NC(=O)CCCCCCCCCCCCCCCCCCC(=O)O)C(=O)O)C(=O)N[C@@H](CC(N)=O)C(=O)N[C@@H]([C@@H](C)O)C(=O)N[C@@H](C)C(=O)N[C@@H]([C@@H](C)O)C(=O)N1)[C@@H](C)O)C(=O)N1CCC[C@H]1C(=O)N[C@@H](CO)C(=O)N[C@@H](CO)C(=O)N[C@H](C(=O)N[C@@H](CC(N)=O)C(=O)N[C@H](C(=O)NCC(=O)N[C@@H](CCCNC(=N)N)C(=O)N[C@@H](CC(N)=O)C(=O)N[C@H](C(=O)N[C@@H](Cc1ccc(O)cc1)C(N)=O)[C@@H](C)O)C(C)C)[C@@H](C)O
notes: also called compound 79

molecular target: T1, human amylin 3(a) receptor (human …); experiment: cell-based or functional assay

Ratio hCT/hAmylin funct. (hCTR EC50 over hAmylin-R EC50)	hAmylin-R funct. EC50 (pM)	Binder
139	37	B1
38.6	242	B2
37.3	145	B3
41.6	405	B4
22.6	133	B5
24.5	161	B6
